Measurements: the nanobody polyreactivity screen of Harvey et al. (2022)

Assay: yeast display, Sf9 membrane polyspecificity reagent, FACS + sequencing; frameworks hold sequencing errors
Outline: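 Nanobodies came from a synthetic yeast display library in Saccharomyces cerevisiae BJ5465, induced with galactose for 36–48 hours and stained for 1 hour at 4 °C with 10% biotinylated, detergent-solubilized Sf9 membrane reagent. Cells were enriched on streptavidin microbeads and then FACS-sorted, with low and high (top ~1%) gates set on anti-HA fluorescence for expression and streptavidin fluorescence for reagent binding. Each polyreactivity label reflects the gate a clone came from. Genes were amplified by colony PCR, sequenced by MiSeq 2 × 250 and filtered by CDR length.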

QVQLVESGGGLVQAGGSLRLSCAASGRIFTVYAMGWYRQAPGKERELVAAISGRGGRTYYADSVKGRFTISRDNAKNTVYLQMNSLKPEDTAVYYCNADTLTLTRPDGDIHTVWMDYWGQGTQVTVSS
polyreactivity (PSR sort gate): low polyreactivity

QVQLVESGGGLVQAGGSLRLSCAASGFTFWWYAMGWYRQAPGKERELVASIDTRGGTYYADSVKGRFTISRDNAKNTVYLQMNRLKPEDTAVYYCNADGAYGNYRGGYWGQGTQVTVSS
polyreactivity (PSR sort gate): high polyreactivity

QVQLVESGGGLVQAGGSLRLSCAASGSTFYPYAMGWYRQAPGKERELVAAITSGGRTYYADSVKGRFTISRDNAKNTVYLQMNSLKPEDTAVYYCAAVYINRLTSKYEYWGQGTQVTVSS
polyreactivity (PSR sort gate): high polyreactivity

QVQLVESGGGLVQEGGSLRLSCAASGSTFPLYTMGWYRQAPGKERELVATISRGGSTYYADSVKGRFTISRDNAKNTVYLQMNSLKPEDTAVYYCAARPFGFKFDYWGQGTQVTVSA
polyreactivity (PSR sort gate): low polyreactivity

QVQLVESGAGLVQAGGSLRLSCAASGRTFVDNTMGLYTHAPGKERELVASISSGGSTYYADSVKGRFTISRDNAKNTVYLQMNRLKPEDTAVYDCATGDTLFVFYPDYEYWGQGTQVTVSS
polyreactivity (PSR sort gate): low polyreactivity

QVQLVESGGGLVQAGGSLRLSCAASGRTSTRNAMGWYRQAPGKERELVAAITRSGGGTYYADSVKGRFTISRDNAKNTVYLQMNSLKPEDTAVYYCAADQRSPSDGYEYWGQGTQVTVSS
polyreactivity (PSR sort gate): low polyreactivity

QVQLGESGGGLVQAGGSLRISCAASGSILIANAMGWYRQAPGKERELVAPISRSGSTTYYADSVKGRFTISRDNAKNTVYLQMNSLKPEDTAVYYCNARYSLHSYYWFIYDSWGQGTQVTGSS
polyreactivity (PSR sort gate): low polyreactivity

QVQLVESGGGLVQAGGSLRLSCAASGRIFEYYAMGWYRQAPGKERELVAAINTGGNTYYADSVKGRFTISRDNAKNTVYLLMNSLKPEDTAVYYCATYPIWYGGYLSGTDYDYWGQGTQVTVSS
polyreactivity (PSR sort gate): low polyreactivity

QDQLVESGGGLVQGGGSLRLSCAASGRIFSPYAMGWYRQAPGKEREVVAAITSASSTYYADSVKGRFTISRDNAKNTVYLQMNSLKPEDTAVNYCAASYWRYGSAFDYWGHGTQVTVSS
polyreactivity (PSR sort gate): high polyreactivity

QVQLVESGGGLVQAGGSLRLSCAASGSIFETNAMGWYRQAPGKERELVAAITGSGGSTYYADSVKGRFTISRDNAKNTVYLQMNSLIPVDTEVYYCAADSSGQSRFGYWGQGTQVTVSS
polyreactivity (PSR sort gate): low polyreactivity

QVQLVESGGGLVQAGGSLRLSCAASGITFKYYTMGWYRQAPGKERELVAAISRSGGSTYYADSVKGRFTISRDNAKNTVYLLMNSLKPEDTAVYYCAGERGAYRGVTFTYGYWGQGTQVTVSS
polyreactivity (PSR sort gate): high polyreactivity

QVQLVESGGGLVQAGGSLRLSCAASGSTFSTYAMGWYRQAPGKERELVAAISRTGGSTYYADSVKGRFTISRDNAKNTVYLQMNSLKPEDTAVYYCAADEDWEYWAPWYDYWGQGTQVTVSS
polyreactivity (PSR sort gate): low polyreactivity

QVQLVESGGGLVQAGGSLRLSCAASGRICVINAMGWYRQAPGKERELVATIDRGGSTNYADSVKGRFSISRDNAKNTVYLQMNSLKPEDTAVYYCAAGVVGKRSRTGYYWGQGTQVTVSS
polyreactivity (PSR sort gate): low polyreactivity

QVQLVESGGGLVQAGGSLRLSCAASGRTFVTYVMGWYRQAPGKEREFVAAIRWSGGRTYYADSVKGRFTISRDNAKNTVYLQMNSLKPEDTAVYYCAAVYYDRSYRYEYWGQGTQVTVSS
polyreactivity (PSR sort gate): high polyreactivity

QVQLVESGGGLVQAGGSLRLSCAASGSIFRRYAMGWYRQAPGKERELVAAISTRGGSTYYADSVKGRFTISRDNAKNTVYLQMNSLKPEDTAVYYCAVKGSGGPKYDYWGQGTQVTVAS
polyreactivity (PSR sort gate): high polyreactivity

QVQLVESGGGLVQAGGSLRLSCAASGGIFRWYTMGWYRPAPGKERELVAAITGSGGRTFYADSVKGRFTISRDNAKNTVYLQMNSLKPEDTAVYYCAKPQAQVGGYWGYDYWGQGTQVTVSS
polyreactivity (PSR sort gate): high polyreactivity

QVQLEDSGGGLVQAGGSLRLSCAASGGIFLTYTMGWYRQAPGKEREFVAAIRSSSGRTYYADSVKGRFTISRDNAKNTVYLQMISLKPEDTSVYYCNAKYYGYRVGKYYPFGYWGQGTQVTVSS
polyreactivity (PSR sort gate): high polyreactivity

QVQLVESGGGLVQAGGSLRLSCAASGRTFRVYAMGGYRQAPGTERELVASISRRGAATYYADSVKGRFTISRDNAKNTVYRQMNSLKPEDTAVSDCAADRPYYSVSPNTEFEYWGQGTQVTVSS
polyreactivity (PSR sort gate): high polyreactivity

QDQLVETGVGLVQAGGSLLLSCAPSAITFRGYAMGWYRQAPGKEREYVAAITSGSSTYYADSVKGRFTISRDNAKNTVYLQMNSLKPEDTAVYYCAAERTKSFKLTRPGSMDYWGQGTQVTVSS
polyreactivity (PSR sort gate): low polyreactivity

QVQLVESGGGLVQAGGSLRLSCAASGSTFSPNAMGWYRQAPGKERELVAAITWSGGSNTYADSVKGRFTISRDNAKNTVYLQMNSLKPEDTAVYYCAADTKYDNDYWGQGTQVTVSS
polyreactivity (PSR sort gate): low polyreactivity

QVQLVESGGGLVQAGGSLRLSCAASGRTFTWNAMGWYRQAPGKERELVADITNNGGSTYYADSVKGRFTISRDNATNTVYLQMNSLKPEDTAVYYCDNRRNYWFSFDYWGQGTQVTVSS
polyreactivity (PSR sort gate): low polyreactivity

QVQLVESGGGLVQAGGSLRLSCAASGSIFGNAMGWYRPAPGKERELVAAISRRGGRTYYADSVKGRFTISRDNAKNTVYLQMNSLKPEDTAVYYCANTAKTWGWWLRGYGYWGQGTQVTVSS
polyreactivity (PSR sort gate): high polyreactivity

QVQLEESGGGLVQAGGSLRLSCAASGSICGVYVMGWYRQAPGKERELVASISRGTTTNYADSVKGRFTISRDNAKNTVYLQMNSLKPEDTAVYYCNADIRGFFFQYDYWGQGTQVTVSS
polyreactivity (PSR sort gate): low polyreactivity

QVQLVESGGGLVQAGGSLRLSCAASGLTFYYYAMGWYRQAPGKERELVATISGSGGNTYYADSVKGRFTISRDNAKNTVYLQMNSLKPEDTAVYYCNARYRWWLYYSRDRVYCWGQGTQVTVSS
polyreactivity (PSR sort gate): high polyreactivity

QVQLVESGGGLVQAGGSLRLSCAASGFIFWWYAMGWYRQAPGKERELVAGITGSGGTTYYADSVKGRFTISRDNAKNTVYLQMNSLKPEDTAVYYCAARSRSRPKYDYWGQGTQVTVSS
polyreactivity (PSR sort gate): high polyreactivity

QVQLVESAGGLVQAGGSLRLSCAATGSIFHPYAMGWYRQAPGKERELVASITSSGGSTYYADSVKVRFTISRENAKNTVYLEMNSLKPEDTAVYYCKAQFLVYFFWYSTTAYIMYYWGQGTQVTVSS
polyreactivity (PSR sort gate): low polyreactivity

QVQLVESGGGLVQAGGSLRLSCAASGFIFARYAMGWYRQAPGKERELVAAISSSGSSSYYADSVKGRFTISRDNAKNTVYLQMNSLKPEDTAVYYCAAKDSKYRNSPLYNYWGQGTQVTVSS
polyreactivity (PSR sort gate): high polyreactivity

QVQLVESGGGLVQAGGSLRLSCAASGFTFDDNAMGWYRQAPGKERELVAVITKSGGRTYYADSVKGRFTLSRDNAKNTVYLQMNSLKPEDTAVYYCNADGRNWYYKWYDYWGQGTQVTVSS
polyreactivity (PSR sort gate): low polyreactivity

QVQLVESGGGLVQAGGSLRLSCAASGSIFGYNAMGWYRQAPGKETELVAVITRSDGSTYYADSVKGRFTISRDNAKNTVYLQMNSLKPVDTAVYYCNAETHVYYWGVVIYEYNYWGQGTQVTVSS
polyreactivity (PSR sort gate): low polyreactivity

QVQLVESGGGLVQAGGSLRLSCAASGGTFQSNALGWYRQAPAKERELVASITSRGSSTYYADSVKGRFTISRDNAKNTVYLQMNSLKPEDTAVYYCAKGRSWQIYYKGGIKGGYWGQGTQVTVSS
polyreactivity (PSR sort gate): low polyreactivity

QVQLVESGGGLVQAGGSLRLSCAASGRIFRYNAMGWYRQAPGKERELVAAIRFSGGSTYYADSVKGRFTISRDNAKNTVYLQMNSLKPEYSAVYYCAKVYFRVQSGMDYWGQGTQVTVSS
polyreactivity (PSR sort gate): low polyreactivity

QVQLVESGGGLVHAGGSLRLSCAASGRIFRRYAMGWYRQAPGKERELVASISSGGSTNYADSLKGRFTISRDNAKNTVYLQMNSLNPEDTAVYYCNVYYGYFRSRYCYWGQGTQVTVSS
polyreactivity (PSR sort gate): high polyreactivity

QVQLVESGGRLVQAGGSLRLSCAASGFIFAVYAMGSYRQAPGKECELVAAISRSSGSTYYADSVKGRFTISRHNAKNTVYLQMNSLKPEDTAVYYCAAVFLYRGYAQYDYWGQGTQVTVSS
polyreactivity (PSR sort gate): high polyreactivity

QVQLVESGGGLVQAGGSLRLSCAATGSIFRRNAMGGYRQAPGKERELVAAISSNGGSTYYADSVKGRFTISRDNAKNTVYLQMNSLKPEDTAVYYCNALGRVRYPFDYWGQGTQVTVSS
polyreactivity (PSR sort gate): high polyreactivity

QVQLVASGGGLVQAGGSLRLSCAASGSISFYNAMGWYRQAPGKERELVAAINRSGGSTNYADSVKGLFTISRDNGKNTVYLQMNSLKPEDTAVYYCAAVSSKGNRHVYDYWGQGTQVTGSS
polyreactivity (PSR sort gate): low polyreactivity

QVQLVESGGGLVQAGGSLRLSCAASGRILKRYAMGWYRQAPGKERELVAAINWSGGSTYYADSVKGRFTISRDNAKNTVYLQMTSLKPEDTAVYYCAADSWPFGYYYWGQGTQVTVSS
polyreactivity (PSR sort gate): high polyreactivity

QVQLVESGGGLVQAGGSLRLSCAASGRTFAGNAMGWYRQAPGKEREFVASITASGVNTYYADSVKGRFTISRDNAKNTVYLQMNSLKPEDTAVYYCNKRNRWTPFYTYDYWGQGTQVTVSS
polyreactivity (PSR sort gate): low polyreactivity

QVQLVESGGGLGQAGGSLRLSCAASGRTFPIYVMGWYRQAPGKERELVASISASGVRTYFADSVKGRFTISRDNAKNTVYLQMNSLKPEDTAVYYCATQVRRWYSARSPNVRFDYWGQGTQVTVSS
polyreactivity (PSR sort gate): high polyreactivity

QVQLVESGGGLVQARGSLRLSCAASGSIFQYNAMGWYRQAPGKERELVAAINGGGSTYYADSVKGRFTISRNNAKNTVYLQLTSLNPEDTAVYYCNADAMDEDWRGYWGQGTQVTVSS
polyreactivity (PSR sort gate): low polyreactivity

QVQLVESGGGLVQAGGSLRLSCAASGLTFYSYAMGWYRQAPGKERELVAAISSSGGNTYYADSVKGRFTISRDNAKNTVYLQMNSLKPEDTAVYYCNVYHWSRVFAIDYYWGQATQVTVSS
polyreactivity (PSR sort gate): high polyreactivity

QVQLEESGGGLVQAGGSLRLSCAASGLTFPWYAMGWYRPATGKEREFVAAITGGGSTYYADSVKGRFTISRDNAKNTVYLQMNSLKPEDTAVYYCNTDVPYGLDVSDTIDYYYWGQGTLVTVSS
polyreactivity (PSR sort gate): low polyreactivity

QVQLVESGGGLVQAGGSLRLSCAASGSIFPHNAMGWYRQAPGKERELVAAISTSGGRTYYADSVKGRFTISRDNAKNTVYLQMNSLKPVDTAVYYCNARSVRSRYDYWGQGTQVTVSS
polyreactivity (PSR sort gate): high polyreactivity

QVQVVESGGGLVQAGGSLRLSCAASGFIFRRYAMGWYRQAPGKEMELVAAINYSGGSTYYADSVKGRFTISRDNEKNTVYLQMKSLKPEDNAVYYCNAYGLRYYEYDYWGQGTQVTVSS
polyreactivity (PSR sort gate): low polyreactivity
